Experimental data reported in US20150252148A1.

System: Dynamic MAPTrix™ Laminin

Substance: type IV bacterial collagenase
- enzymatic digestion monitored by SDS-PAGE (25:1 substrate:collagenase, 2 h, 37° C.): the apparent molecular weight of various fractions from disgested Dynamic MAPTrix™ Laminin on a SDS-PAGE gel was 29, 18, and 12 kDa
